Data set [1] is described as follows: Western blot of concentrated culture supernatant vs lysate. The conditions noted are these: glycan lost; control: wild type. Background: In western blotting, separated proteins are transferred to a membrane and probed.
A short description of data set [2]: Western blot of 293T cell lysates. The following applies: glycan lost; control: wild type.

B1: Procollagen C-proteinase enhancer protein (PCOLCE): N29Q (protein)
parent chain: MLPAATASLLGPLLTACALLPFAQGQTPNYTRPVFLCGGDVKGESGYVASEGFPNLYPPNKECIWTITVPEGQTVSLSFRVFDLELHPACRYDALEVFAGSGTSGQRLGRFCGTFRPAPLVAPGNQVTLRMTTDEGTGGRGFLLWYSGRATSGTEHQFCGGRLEKAQGTLTTPNWPESDYPPGISCSWHIIAPPDQVIALTFEKFDLEPDTYCRYDSVSVFNGAVSDDSRRLGKFCGDAVPGSISSEGNELLVQFVSDLSVTADGFSASYKTLPRGTAKEGQGPGPKRGTEPKVKLPPKSQPPEKTEESPSAPDAPTCPKQCRRTGTLQSNFCASSLVVTATVKSMVREPGEGLAVTVSLIGAYKTGGLDLPSPPTGASLKFYVPCKQCPPMKKGVSYLLMGQVEENRGPVLPPESFVVLHRPNQDQILTNLSKRKCPSQPVRAAASQD
B1: the expression_or_secretion result in data set [1] and in data set [2] was “decreases” throughout.

The values are drawn from publication PMC6599655.
